Results from patent publication US20100021538A1, “PHARMACEUTICAL COMPOSITIONS CONTAINING HEPARIN DERIVATIVES” (priority 2008, published 2010).

Assay: Particle size of heparin-DOCA solutions with solubilizers by electrophoretic light scattering
Assay type: physicochemical
Settings: aqueous 1 mg/ml heparin-DOCA solution, solubilizer added at 0.1 mg/ml, ELS-8,000, N.D. = particles were not detected
Procedure: To measure the formation of self-assembled nanoparticles in aqueous solutions of heparin-DOCA and to observe the prevention of particle formation due to a solubilizer, the solubilizers shown in Table 1 were added at a concentration of 0.1 mg/ml to 1 mg/ml of heparin-DOCA solution, and electrophoretic light scattering spectrophotometry (ELS-8,000) was used to measure the size of particles in the solution.

In the case of Heparin-Deoxycholic Acid [Heparin-DOCA], the “Particle Size (nm)” value was 369.5 nm and the “Particle Size (nm)” value (listed as heparin-deoxycholic acid) was 370 nm.
